# Measured values as given in patent US20090081760A1, “DMO METHODS AND COMPOSITIONS” (priority 2007, published 2009).
# Tested on: Dicamba
# Assay: LC-MS/MS screen for oxygenase (DMO) activity: E. coli liquid culture expressing ddmC or a variant, grown with dicamba, DCSA detected in supernatant
# Assay type: cell-based
# Conditions: for Changed to: C % of control for set / Changed to: C DCSA values (ppm): residue changed to C; for Changed to: M % of control for set / Changed to: M DCSA values (ppm): residue changed to M
# Procedure: An LC-MS/MS screen for oxygenase activity was used to detect DCSA. The method comprises a two stage process made up of a liquid cell culture assay coupled to an LC-MS/MS detection screen. In the liquid cell culture stage, the gene of interest, i.e. ddmC or a variant thereof, was cloned under the control of a promoter (e.g. T7 promoter, pET vector) and transformed into an E. coli host cell. […] Cells were spun down, and the supernatant was filtered and diluted tenfold with the inclusion of 8 μM salicylic acid as an internal standard. Samples of the supernatant, and/or optionally the cell pellet (or lysate thereof), from this first stage were analyzed for DCSA levels (i.e. DMO activity level) by LC-MS/MS.
# While many oxygenases such as DMO are multi component systems requiring other helper enzymes for activity, it was observed that components in E. coli may substitute for these helper enzymes or functions. Thus, transformation of E. coli with a single “oxygenase” gene from a multi component system nevertheless results in measurable activity for the gene alone, even without other components being co-transformed into the same E. coli cell. Activity is observed because, in E. coli cells, surrogates with homology to the original helper enzymes (e.g. ferredoxin and reductase) may be utilized. Additionally, E. coli can take up substrate (e.g. dicamba) and excrete the product (e.g. DCSA) into the media supernatant, allowing for the speed and simplicity of this cell based screen. No lysis of cells is required. Alternatively, an HPLC-based assay for DMO activity may be utilized. Promising variants were used as templates for additional rounds DOT and or other mutagenesis methods in an iterative manner. […]
# Sets of saturation mutagenesis primers (using NNS degenerate triplets) for 31 residues at the active site and involved in the electron transfer chain as indicated in Table 28 were designed and used to introduce mutations into the ddmC gene by means of terminated PCR on the template (ddmC gene with His tag and two changes, T2S+I123L (SEQ ID NO:23) in pMV4 vector (Modular Genetics, Cambridge, Mass.). Resulting PCR products were treated with DpnI to remove the parental template molecules, self-annealed and transformed into chemically competent E. coli Top10 F′ (Invitrogen, Carlsbad, Calif.). Standard DNA cloning methods were utilized (e.g. Sambrook et al., 1989). The individual colonies were grown in liquid culture. DNA was isolated by a standard miniprep procedure and used to transform the chemically competent E. coli (e.g. BL21(DE3)). […] Cells were spun down, and the supernatant was filtered and diluted tenfold with 8 μM salicylic acid as an internal standard. The DCSA levels (i.e. DMO activity level) were determined by LC-MS analysis as described above (e.g. Example 8).
# Additional single substitution variants of DMO at residues corresponding to interaction (e.g. subunit interface) domains and the ferredoxin binding site were also prepared and assayed for their effect on enzymatic activity (See also Examples 8A, 8B) by the LC/MS screen. In most cases shown in Table 29, one conservative and one neutral substitution was tried at a given residue.
# Table 30 lists DMO activity data (by LC/MS screen) for 58 variants relative to ddmC_M—6his (the wild type ddmC sequence with an N-terminal His tag (SEQ ID NO: 154), while Table 31 lists DMO activity data (by LC/MS screen) for 1685 variants relative to ddmC_RLE6his (the wild type ddmC sequence with T2S and I123L mutations (SEQ ID NO:23), and a C-terminal 6×His tag). The numbering of residues is based on the numbering found in SEQ ID NO:2 or SEQ ID NO:3.
# [1] = DCSA relative to control average of the data set
molecule,measurement,setting,value
"G266S: DMO variant from NNS mutagenesis, more active than the control (protein) MATFVRNAWYVAALPEELSEKPLGRTILDTPLALYRQPDGVVAALLDICPHRFAPLSDGILVNGHLQCPYHGLEFDGGGQCVHNPHGNGARPASLNVRSFPVVERDALIWICPGDPALADPGAIPDFGCRVDPAYRTVGGYGHVDCNYKLLVDNLMDLGHAQYVHRANAQTDAFDRLEREVIVGDGEIQALMKIPGGTPSVLMAKFLRGANTPVDAWNDIRWNKVSAMLNFIAVAPEGTPKEQSIHSRGTHILTPETEASCHYFFSSSRNFGIDDPEMDGVLRSWQAQALVKEDKVVVEAIERRRAYVEANGIRPAMLSCDEAAVRVSREIEKLEQLEAARLEHHHHHH",DMO activity of NNS mutagenesis variants (in words),"NNS saturation mutagenesis variants, 200 to 500 μM Dicamba, 30 hrs, 37° C.",more active than the control
same,Changed to: S % of control for set,"residue changed to S, DCSA relative to control average of the data set",130.25%
same,Changed to: S DCSA values (ppm),"residue changed to S, mean +/− SD (n)",34.63 +/− 4.14 (4) ppm
R248I: DMO substitution variant (protein) MATFVRNAWYVAALPEELSEKPLGRTILDTPLALYRQPDGVVAALLDICPHRFAPLSDGILVNGHLQCPYHGLEFDGGGQCVHNPHGNGARPASLNVRSFPVVERDALIWICPGDPALADPGAIPDFGCRVDPAYRTVGGYGHVDCNYKLLVDNLMDLGHAQYVHRANAQTDAFDRLEREVIVGDGEIQALMKIPGGTPSVLMAKFLRGANTPVDAWNDIRWNKVSAMLNFIAVAPEGTPKEQSIHSIGTHILTPETEASCHYFFGSSRNFGIDDPEMDGVLRSWQAQALVKEDKVVVEAIERRRAYVEANGIRPAMLSCDEAAVRVSREIEKLEQLEAARLEHHHHHH,Changed to: I % of control for set,"residue changed to I, DCSA relative to control average of the data set",146.23%
same,Changed to: I DCSA values (ppm),"residue changed to I, mean +/− SD (n)",38.88 +/− 3.93 (4) ppm
A287C: DMO substitution variant (protein) MATFVRNAWYVAALPEELSEKPLGRTILDTPLALYRQPDGVVAALLDICPHRFAPLSDGILVNGHLQCPYHGLEFDGGGQCVHNPHGNGARPASLNVRSFPVVERDALIWICPGDPALADPGAIPDFGCRVDPAYRTVGGYGHVDCNYKLLVDNLMDLGHAQYVHRANAQTDAFDRLEREVIVGDGEIQALMKIPGGTPSVLMAKFLRGANTPVDAWNDIRWNKVSAMLNFIAVAPEGTPKEQSIHSRGTHILTPETEASCHYFFGSSRNFGIDDPEMDGVLRSWQCQALVKEDKVVVEAIERRRAYVEANGIRPAMLSCDEAAVRVSREIEKLEQLEAARLEHHHHHH,Changed to: C % of control for set,[1],109.56%
same,Changed to: C DCSA values (ppm),mean +/− SD (n),29.13 +/− 5.46 (4) ppm
A287E: DMO substitution variant (protein) MATFVRNAWYVAALPEELSEKPLGRTILDTPLALYRQPDGVVAALLDICPHRFAPLSDGILVNGHLQCPYHGLEFDGGGQCVHNPHGNGARPASLNVRSFPVVERDALIWICPGDPALADPGAIPDFGCRVDPAYRTVGGYGHVDCNYKLLVDNLMDLGHAQYVHRANAQTDAFDRLEREVIVGDGEIQALMKIPGGTPSVLMAKFLRGANTPVDAWNDIRWNKVSAMLNFIAVAPEGTPKEQSIHSRGTHILTPETEASCHYFFGSSRNFGIDDPEMDGVLRSWQEQALVKEDKVVVEAIERRRAYVEANGIRPAMLSCDEAAVRVSREIEKLEQLEAARLEHHHHHH,Changed to: E % of control for set,"residue changed to E, DCSA relative to control average of the data set",113.40%
same,Changed to: E DCSA values (ppm),"residue changed to E, mean +/− SD (n)",30.15 +/− 2.76 (4) ppm
A169M: DMO substitution variant (protein) MATFVRNAWYVAALPEELSEKPLGRTILDTPLALYRQPDGVVAALLDICPHRFAPLSDGILVNGHLQCPYHGLEFDGGGQCVHNPHGNGARPASLNVRSFPVVERDALIWICPGDPALADPGAIPDFGCRVDPAYRTVGGYGHVDCNYKLLVDNLMDLGHAQYVHRANMQTDAFDRLEREVIVGDGEIQALMKIPGGTPSVLMAKFLRGANTPVDAWNDIRWNKVSAMLNFIAVAPEGTPKEQSIHSRGTHILTPETEASCHYFFGSSRNFGIDDPEMDGVLRSWQAQALVKEDKVVVEAIERRRAYVEANGIRPAMLSCDEAAVRVSREIEKLEQLEAARLEHHHHHH,Changed to: M % of control for set,[1],108.70%
same,Changed to: M DCSA values (ppm),mean +/− SD (n),28.9 +/− 5.06 (4) ppm
R248C: DMO substitution variant (protein) MATFVRNAWYVAALPEELSEKPLGRTILDTPLALYRQPDGVVAALLDICPHRFAPLSDGILVNGHLQCPYHGLEFDGGGQCVHNPHGNGARPASLNVRSFPVVERDALIWICPGDPALADPGAIPDFGCRVDPAYRTVGGYGHVDCNYKLLVDNLMDLGHAQYVHRANAQTDAFDRLEREVIVGDGEIQALMKIPGGTPSVLMAKFLRGANTPVDAWNDIRWNKVSAMLNFIAVAPEGTPKEQSIHSCGTHILTPETEASCHYFFGSSRNFGIDDPEMDGVLRSWQAQALVKEDKVVVEAIERRRAYVEANGIRPAMLSCDEAAVRVSREIEKLEQLEAARLEHHHHHH,Changed to: C % of control for set,[1],132.69%
same,Changed to: C DCSA values (ppm),mean +/− SD (n),35.28 +/− 12.15 (4) ppm
N218M: DMO substitution variant (protein) MATFVRNAWYVAALPEELSEKPLGRTILDTPLALYRQPDGVVAALLDICPHRFAPLSDGILVNGHLQCPYHGLEFDGGGQCVHNPHGNGARPASLNVRSFPVVERDALIWICPGDPALADPGAIPDFGCRVDPAYRTVGGYGHVDCNYKLLVDNLMDLGHAQYVHRANAQTDAFDRLEREVIVGDGEIQALMKIPGGTPSVLMAKFLRGANTPVDAWMDIRWNKVSAMLNFIAVAPEGTPKEQSIHSRGTHILTPETEASCHYFFGSSRNFGIDDPEMDGVLRSWQAQALVKEDKVVVEAIERRRAYVEANGIRPAMLSCDEAAVRVSREIEKLEQLEAARLEHHHHHH,Changed to: M % of control for set,[1],106.92%
same,Changed to: M DCSA values (ppm),mean +/− SD (n),40.87 +/− 0.62 (2) ppm
N218H: DMO substitution variant (protein) MATFVRNAWYVAALPEELSEKPLGRTILDTPLALYRQPDGVVAALLDICPHRFAPLSDGILVNGHLQCPYHGLEFDGGGQCVHNPHGNGARPASLNVRSFPVVERDALIWICPGDPALADPGAIPDFGCRVDPAYRTVGGYGHVDCNYKLLVDNLMDLGHAQYVHRANAQTDAFDRLEREVIVGDGEIQALMKIPGGTPSVLMAKFLRGANTPVDAWHDIRWNKVSAMLNFIAVAPEGTPKEQSIHSRGTHILTPETEASCHYFFGSSRNFGIDDPEMDGVLRSWQAQALVKEDKVVVEAIERRRAYVEANGIRPAMLSCDEAAVRVSREIEKLEQLEAARLEHHHHHH,Changed to: H % of control for set,"residue changed to H, DCSA relative to control average of the data set",104.38%
same,Changed to: H DCSA values (ppm),"residue changed to H, mean +/− SD (n)",39.9 +/− 9.75 (4) ppm
A287M: DMO substitution variant (protein) MATFVRNAWYVAALPEELSEKPLGRTILDTPLALYRQPDGVVAALLDICPHRFAPLSDGILVNGHLQCPYHGLEFDGGGQCVHNPHGNGARPASLNVRSFPVVERDALIWICPGDPALADPGAIPDFGCRVDPAYRTVGGYGHVDCNYKLLVDNLMDLGHAQYVHRANAQTDAFDRLEREVIVGDGEIQALMKIPGGTPSVLMAKFLRGANTPVDAWNDIRWNKVSAMLNFIAVAPEGTPKEQSIHSRGTHILTPETEASCHYFFGSSRNFGIDDPEMDGVLRSWQMQALVKEDKVVVEAIERRRAYVEANGIRPAMLSCDEAAVRVSREIEKLEQLEAARLEHHHHHH,Changed to: M % of control for set,[1],149.32%
same,Changed to: M DCSA values (ppm),mean +/− SD (n),39.7 +/− 5.86 (4) ppm
